From publication PMC8831504

Target: cpNanoLuc α-amylase biosensor (VHH-cpNanoLuc-VHH fusion)
Assay: luminescence titration of a single-component biosensor; 1 nM biosensor in 200 μl 20 mM Tris-HCl pH 7.2, 100 mM NaCl with 0.25 μl furimazine stock, titrated with its protein ligand; preincubated 15 min at room temperature; luminescence 445-470 nm; fit to a quadratic binding equation

Sequence of cpNanoLuc α-amylase biosensor (VHH-cpNanoLuc-VHH fusion) (main, as listed by the source): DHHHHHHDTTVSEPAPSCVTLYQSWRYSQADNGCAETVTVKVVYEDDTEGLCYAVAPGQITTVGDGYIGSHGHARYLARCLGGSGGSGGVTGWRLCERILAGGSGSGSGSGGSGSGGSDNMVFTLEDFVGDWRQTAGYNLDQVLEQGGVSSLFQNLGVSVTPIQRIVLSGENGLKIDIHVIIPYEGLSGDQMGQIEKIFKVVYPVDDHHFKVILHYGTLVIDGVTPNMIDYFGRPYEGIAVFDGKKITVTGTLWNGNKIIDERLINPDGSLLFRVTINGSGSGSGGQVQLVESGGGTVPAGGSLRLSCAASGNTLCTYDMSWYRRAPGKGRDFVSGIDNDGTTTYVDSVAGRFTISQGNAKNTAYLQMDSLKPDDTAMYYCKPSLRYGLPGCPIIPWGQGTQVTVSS

- Kd: 0.5 nM
B1: human α-amylase (enzyme)
chain: QYSSNTQQGRTSIVHLFEWRWVDIALECERYLAPKGFGGVQVSPPNENVAIHNPFRPWWERYQPVSYKLCTRSGNEDEFRNMVTRCNNVGVRIYVDAVINHMCGNAVSAGTSSTCGSYFNPGSRDFPAVPYSGWDFNDGKCKTGSGDIENYNDATQVRDCRLSGLLDLALGKDYVRSKIAEYMNHLIDIGVAGFRIDASKHMWPGDIKAILDKLHNLNSNWFPEGSKPFIYQEVIDLGGEPIKSSDYFGNGRVTEFKYGAKLGTVIRKWNGEKMSYLKNWGEGWGFMPSDRALVFVDNHDNQRGHGAGGASILTFWDARLYKMAVGFMLAHPYGFTRVMSSYRWPRYFENGKDVNDWVGPPNDNGVTKEVTINPDTTCGNDWVCEHRWRQIRNMVNFRNVVDGQPFTNWYDNGSNQVAFGRGNRGFIVFNNDDWTFSLTLQTGLPAGTYCDVISGDKINGNCTGIKIYVSDDGKAHFSISNSAEDPFIAIHAESKL
